In US20200262877A1, “ION CHANNEL-BINDING PEPTIDES AND METHODS OF USE THEREOF” (priority 2017, published 2020):

Assays:
TRPA1 = molecular target: T1, TRPA1 (Homo sapiens, UniProt O75762); assay: Ion channel panel (IonWorks Barracuda): TRPA1; format: cell-based; details: 100% = no change, <100% = inhibition
T1 construct: host or cells: HEK293 or CHO
Outline: (§1)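 Peptides were tested in duplicate at final 20 μM and 200 nM, with concentration set by amino acid analysis, in HEPES-buffered saline. They were applied for at least 5 min to HEK293 or CHO cells transfected with each channel. Currents were expressed as % inhibition, 1-(Ipeptide/Icontrol)×100, or % activation, Ipeptide/Icontrol×100, against a channel-matched reference compound.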

Kir2.1 = molecular target: T2, Kir2.1 (Homo sapiens, UniProt P63252); assay: Ion channel panel (IonWorks Barracuda): Kir2.1; format: cell-based; details: 100% = no change, <100% = inhibition
T2 construct: host or cells: HEK293 or CHO
T2 sequence (P63252 whole entry): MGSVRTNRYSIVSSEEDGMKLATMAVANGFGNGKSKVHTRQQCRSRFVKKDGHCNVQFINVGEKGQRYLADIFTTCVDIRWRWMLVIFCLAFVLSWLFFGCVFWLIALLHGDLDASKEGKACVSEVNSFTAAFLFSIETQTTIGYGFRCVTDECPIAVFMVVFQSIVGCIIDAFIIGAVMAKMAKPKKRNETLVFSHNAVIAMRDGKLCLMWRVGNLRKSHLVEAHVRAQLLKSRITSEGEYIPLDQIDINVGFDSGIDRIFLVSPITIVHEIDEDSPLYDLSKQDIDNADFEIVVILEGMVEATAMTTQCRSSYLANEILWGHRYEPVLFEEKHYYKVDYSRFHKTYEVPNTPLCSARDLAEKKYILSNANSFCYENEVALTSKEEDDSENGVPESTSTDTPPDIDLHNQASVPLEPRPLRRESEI
Outline: as §1

NR2A = molecular target: T3, NR2A (Homo sapiens, UniProt Q12879); assay: Ion channel panel (IonWorks Barracuda): NR2A; format: cell-based; details: 100% = no change, <100% = inhibition
T3 construct: host or cells: HEK293 or CHO
Outline: as §1

5HT3a = molecular target: T4, 5HT3a (Homo sapiens, UniProt P46098); assay: Ion channel panel (IonWorks Barracuda): 5HT3a; format: cell-based
T4 construct: host or cells: HEK293 or CHO
T4 sequence (P46098 whole entry, looked up): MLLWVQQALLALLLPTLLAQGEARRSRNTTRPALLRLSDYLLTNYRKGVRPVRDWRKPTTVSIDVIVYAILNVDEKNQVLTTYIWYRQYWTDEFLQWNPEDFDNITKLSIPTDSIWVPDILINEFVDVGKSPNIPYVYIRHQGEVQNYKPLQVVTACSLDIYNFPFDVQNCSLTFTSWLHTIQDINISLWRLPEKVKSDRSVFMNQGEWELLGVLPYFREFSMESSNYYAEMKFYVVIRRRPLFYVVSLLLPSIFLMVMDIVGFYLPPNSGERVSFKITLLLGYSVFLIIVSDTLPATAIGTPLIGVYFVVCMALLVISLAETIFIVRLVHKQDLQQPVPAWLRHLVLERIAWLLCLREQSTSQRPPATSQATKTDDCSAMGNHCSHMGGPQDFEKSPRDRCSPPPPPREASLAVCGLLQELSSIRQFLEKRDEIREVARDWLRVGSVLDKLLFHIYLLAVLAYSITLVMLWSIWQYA
Outline: as §1

α4β2 = molecular target: T5, α4β2 (Homo sapiens, UniProt P17787+P43681); assay: Ion channel panel (IonWorks Barracuda): α4β2; format: cell-based; details: 100% = no change, <100% = inhibition
T5 construct: host or cells: HEK293 or CHO
Outline: as §1

GABA = assay: Ion channel panel (IonWorks Barracuda): GABA; format: cell-based; details: 100% = no change, <100% = inhibition
Outline: as §1

Nav1.7 = molecular target: T6, Nav1.7 (Homo sapiens, UniProt Q15858); assay: cell-based; format: cell-based; details: 100% = no change; for Activity of Nav1.7 with peptide, expressed as a percentage of the reference compound: peptide at 0.2 μM; for Activity of Nav1.7 with peptide (percentage of the reference compound): peptide at 20 μM
T6 construct: host or cells: HEK293 or CHO
T6 sequence (Q15858 whole entry): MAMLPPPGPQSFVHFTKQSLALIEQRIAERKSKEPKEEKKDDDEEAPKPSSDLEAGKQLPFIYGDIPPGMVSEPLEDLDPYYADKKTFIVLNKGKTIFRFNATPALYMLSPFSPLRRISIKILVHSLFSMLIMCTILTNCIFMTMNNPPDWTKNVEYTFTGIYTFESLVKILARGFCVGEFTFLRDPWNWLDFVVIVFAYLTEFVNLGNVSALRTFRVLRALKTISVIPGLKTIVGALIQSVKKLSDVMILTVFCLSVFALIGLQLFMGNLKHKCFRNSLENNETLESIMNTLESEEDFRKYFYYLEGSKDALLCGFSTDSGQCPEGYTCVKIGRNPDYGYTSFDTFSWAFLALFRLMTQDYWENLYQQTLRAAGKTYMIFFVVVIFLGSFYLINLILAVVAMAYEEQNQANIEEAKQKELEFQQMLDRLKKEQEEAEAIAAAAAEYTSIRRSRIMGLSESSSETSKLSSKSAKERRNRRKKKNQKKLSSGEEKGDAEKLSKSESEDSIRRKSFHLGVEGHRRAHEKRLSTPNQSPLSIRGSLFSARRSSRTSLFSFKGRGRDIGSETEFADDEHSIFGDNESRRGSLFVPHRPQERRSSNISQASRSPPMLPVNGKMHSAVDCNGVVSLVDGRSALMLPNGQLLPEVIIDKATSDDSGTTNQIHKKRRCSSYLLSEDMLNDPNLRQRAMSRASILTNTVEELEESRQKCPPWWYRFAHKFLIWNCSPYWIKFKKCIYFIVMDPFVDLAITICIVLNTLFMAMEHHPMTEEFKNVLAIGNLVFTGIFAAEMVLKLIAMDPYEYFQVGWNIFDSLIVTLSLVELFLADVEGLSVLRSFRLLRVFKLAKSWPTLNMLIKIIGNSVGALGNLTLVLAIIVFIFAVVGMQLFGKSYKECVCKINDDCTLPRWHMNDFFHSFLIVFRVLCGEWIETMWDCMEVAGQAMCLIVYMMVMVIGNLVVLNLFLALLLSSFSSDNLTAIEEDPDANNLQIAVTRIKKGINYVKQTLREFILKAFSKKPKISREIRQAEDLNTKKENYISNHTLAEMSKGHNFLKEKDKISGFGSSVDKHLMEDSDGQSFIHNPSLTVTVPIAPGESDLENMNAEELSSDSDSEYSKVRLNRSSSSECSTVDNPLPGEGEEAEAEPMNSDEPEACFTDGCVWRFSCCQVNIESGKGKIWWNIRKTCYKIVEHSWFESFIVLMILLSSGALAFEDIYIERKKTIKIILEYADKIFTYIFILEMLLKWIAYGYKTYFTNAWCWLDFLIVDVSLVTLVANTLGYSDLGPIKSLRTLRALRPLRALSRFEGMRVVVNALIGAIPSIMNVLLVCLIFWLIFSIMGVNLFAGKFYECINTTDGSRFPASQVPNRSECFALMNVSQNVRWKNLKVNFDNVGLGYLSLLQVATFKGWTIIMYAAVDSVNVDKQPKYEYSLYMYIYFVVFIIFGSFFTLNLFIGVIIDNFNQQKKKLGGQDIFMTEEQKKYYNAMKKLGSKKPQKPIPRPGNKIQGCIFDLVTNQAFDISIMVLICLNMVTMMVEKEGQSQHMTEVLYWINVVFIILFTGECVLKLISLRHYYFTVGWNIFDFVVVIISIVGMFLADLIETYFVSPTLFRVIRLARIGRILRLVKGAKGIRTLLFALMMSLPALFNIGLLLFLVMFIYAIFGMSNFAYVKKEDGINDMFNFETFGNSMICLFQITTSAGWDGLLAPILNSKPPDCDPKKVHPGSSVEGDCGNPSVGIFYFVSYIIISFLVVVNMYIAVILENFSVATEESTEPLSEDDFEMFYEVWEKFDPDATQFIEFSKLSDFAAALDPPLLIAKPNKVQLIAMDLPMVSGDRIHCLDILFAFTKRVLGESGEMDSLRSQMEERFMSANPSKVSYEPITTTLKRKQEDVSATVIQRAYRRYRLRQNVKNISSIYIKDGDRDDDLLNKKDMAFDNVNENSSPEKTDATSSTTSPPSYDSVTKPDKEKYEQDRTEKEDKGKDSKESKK

TRPV1 = molecular target: T7, TRPV1 (Homo sapiens, UniProt Q8NER1); assay: Ion channel panel (IonWorks Barracuda): TRPV1; format: cell-based; details: 100% = no change, <100% = inhibition
T7 construct: host or cells: HEK293 or CHO
Outline: as §1

Kv1.1 = molecular target: T8, Kv1.1 (Homo sapiens, UniProt Q09470); assay: cell-based; format: cell-based; details: 100% = no change, <100% = inhibition
T8 construct: host or cells: HEK293 or CHO
Outline: as §1

Kv1.2 = molecular target: T9, Kv1.2 (Homo sapiens, UniProt P16389); assay: cell-based; format: cell-based; details: 100% = no change, <100% = inhibition
T9 construct: host or cells: HEK293 or CHO
Outline: as §1

Kv1.3 = molecular target: T10, Kv1.3 (Homo sapiens, UniProt P22001); assay: cell-based; format: cell-based; details: 100% = no change, <100% = inhibition
T10 construct: host or cells: HEK293 or CHO
T10 sequence (P22001 whole entry): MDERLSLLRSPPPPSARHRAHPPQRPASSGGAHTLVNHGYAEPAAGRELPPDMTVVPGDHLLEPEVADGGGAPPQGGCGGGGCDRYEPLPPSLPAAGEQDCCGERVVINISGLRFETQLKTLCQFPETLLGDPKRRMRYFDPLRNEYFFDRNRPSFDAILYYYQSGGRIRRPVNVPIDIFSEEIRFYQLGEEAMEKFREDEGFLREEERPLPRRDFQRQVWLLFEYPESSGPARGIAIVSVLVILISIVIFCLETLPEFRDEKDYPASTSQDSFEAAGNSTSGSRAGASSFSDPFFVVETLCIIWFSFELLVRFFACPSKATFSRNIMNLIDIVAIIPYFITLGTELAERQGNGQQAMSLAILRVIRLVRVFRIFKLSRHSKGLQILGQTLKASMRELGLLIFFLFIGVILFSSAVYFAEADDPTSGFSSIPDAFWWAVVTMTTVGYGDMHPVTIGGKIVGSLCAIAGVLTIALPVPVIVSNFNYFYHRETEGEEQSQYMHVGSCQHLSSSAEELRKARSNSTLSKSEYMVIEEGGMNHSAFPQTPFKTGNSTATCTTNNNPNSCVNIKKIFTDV
Outline: as §1

Nav1.5 = Nav1.5 (Homo sapiens, UniProt Q14524); assay: in vitro; details: 100% = no change; for Activity of Nav1.5 with peptide, expressed as a percentage of the reference compound: peptide at 0.2 μM; for Activity of Nav1.5 with peptide (percentage of the reference compound): peptide at 20 μM
Chain of Nav1.5 (Q14524 whole entry): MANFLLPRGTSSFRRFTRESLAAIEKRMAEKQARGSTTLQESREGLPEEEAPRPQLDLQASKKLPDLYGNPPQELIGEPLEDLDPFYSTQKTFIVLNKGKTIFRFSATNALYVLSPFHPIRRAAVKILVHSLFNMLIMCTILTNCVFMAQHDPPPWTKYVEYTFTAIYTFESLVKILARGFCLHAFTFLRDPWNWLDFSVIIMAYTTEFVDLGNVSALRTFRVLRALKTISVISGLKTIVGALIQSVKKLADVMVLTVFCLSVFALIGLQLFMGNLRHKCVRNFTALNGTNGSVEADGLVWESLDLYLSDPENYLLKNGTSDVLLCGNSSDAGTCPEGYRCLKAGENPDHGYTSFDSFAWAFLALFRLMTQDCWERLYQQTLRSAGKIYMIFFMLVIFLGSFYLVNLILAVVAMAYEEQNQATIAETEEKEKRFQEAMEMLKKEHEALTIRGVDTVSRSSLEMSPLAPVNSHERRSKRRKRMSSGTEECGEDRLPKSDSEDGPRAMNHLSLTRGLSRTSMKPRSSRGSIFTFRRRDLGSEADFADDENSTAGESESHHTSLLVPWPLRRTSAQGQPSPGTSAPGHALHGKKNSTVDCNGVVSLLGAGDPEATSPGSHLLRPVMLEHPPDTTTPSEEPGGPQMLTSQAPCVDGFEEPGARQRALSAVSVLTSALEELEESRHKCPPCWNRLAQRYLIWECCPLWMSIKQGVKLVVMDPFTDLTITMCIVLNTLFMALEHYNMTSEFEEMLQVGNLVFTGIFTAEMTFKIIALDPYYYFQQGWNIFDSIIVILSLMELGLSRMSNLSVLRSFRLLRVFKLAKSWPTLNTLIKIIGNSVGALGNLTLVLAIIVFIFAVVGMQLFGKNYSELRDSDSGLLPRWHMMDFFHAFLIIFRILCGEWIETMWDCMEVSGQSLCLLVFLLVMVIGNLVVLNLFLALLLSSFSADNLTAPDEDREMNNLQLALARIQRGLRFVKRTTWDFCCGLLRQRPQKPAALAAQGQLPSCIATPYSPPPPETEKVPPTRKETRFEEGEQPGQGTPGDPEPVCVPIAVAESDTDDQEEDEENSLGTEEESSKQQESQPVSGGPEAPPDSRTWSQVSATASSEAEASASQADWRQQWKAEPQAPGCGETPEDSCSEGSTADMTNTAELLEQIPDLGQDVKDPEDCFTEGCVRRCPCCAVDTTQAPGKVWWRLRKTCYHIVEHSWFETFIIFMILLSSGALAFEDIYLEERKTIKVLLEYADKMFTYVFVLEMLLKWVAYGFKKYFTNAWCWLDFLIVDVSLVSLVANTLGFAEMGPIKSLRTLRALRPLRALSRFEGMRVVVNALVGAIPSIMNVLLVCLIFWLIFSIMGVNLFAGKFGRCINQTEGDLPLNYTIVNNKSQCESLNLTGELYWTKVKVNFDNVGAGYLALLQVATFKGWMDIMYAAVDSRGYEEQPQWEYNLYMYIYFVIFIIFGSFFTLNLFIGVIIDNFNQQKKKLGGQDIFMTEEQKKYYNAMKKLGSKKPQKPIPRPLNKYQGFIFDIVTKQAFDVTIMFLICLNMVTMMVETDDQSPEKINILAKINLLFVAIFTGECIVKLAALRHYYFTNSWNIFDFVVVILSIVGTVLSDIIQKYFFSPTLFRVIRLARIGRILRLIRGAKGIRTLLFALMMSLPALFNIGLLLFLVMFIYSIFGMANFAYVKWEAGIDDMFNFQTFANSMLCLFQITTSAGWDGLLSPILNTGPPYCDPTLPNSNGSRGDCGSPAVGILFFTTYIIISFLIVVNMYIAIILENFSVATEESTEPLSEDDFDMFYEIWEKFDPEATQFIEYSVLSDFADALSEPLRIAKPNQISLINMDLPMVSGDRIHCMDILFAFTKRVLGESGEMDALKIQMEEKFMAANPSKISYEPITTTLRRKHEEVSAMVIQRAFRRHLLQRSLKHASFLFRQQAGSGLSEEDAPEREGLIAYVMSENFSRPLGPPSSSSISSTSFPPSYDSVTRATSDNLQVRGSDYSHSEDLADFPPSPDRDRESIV
Outline: as §1

hERG = hERG (Homo sapiens, UniProt Q12809); assay: in vitro; details: 100% = no change, <100% = inhibition
Outline: as §1

α3β4 = molecular target: T11, α3β4 (Homo sapiens, UniProt P30926+P32297); assay: Ion channel panel (IonWorks Barracuda): α3β4; format: cell-based; details: 100% = no change, <100% = inhibition
T11 construct: host or cells: HEK293 or CHO
Outline: as §1

NR2B = molecular target: T12, NR2B (Homo sapiens, UniProt Q13224); assay: Ion channel panel (IonWorks Barracuda): NR2B; format: cell-based; details: 100% = no change, <100% = inhibition
T12 construct: host or cells: HEK293 or CHO
Outline: as §1

Kv2.1 = molecular target: T13, Kv2.1 (Homo sapiens, UniProt Q14721); assay: cell-based; details: 100% = no change, <100% = inhibition
T13 construct: host or cells: HEK293 or CHO
Outline: as §1

Cav2.1 = molecular target: T14, Cav2.1 (Homo sapiens, UniProt O00555); assay: cell-based; details: 100% = no change, <100% = inhibition
T14 construct: host or cells: HEK293 or CHO
Outline: as §1

Cav2.2 = molecular target: T15, Cav2.2 (Homo sapiens, UniProt Q00975); assay: cell-based; details: 100% = no change, <100% = inhibition
T15 construct: host or cells: HEK293 or CHO
Outline: as §1

[1] = first of two Nav1.7 columns (probably TP1)
[2] = second of two Nav1.7 columns (probably TP2)
[3] = first of two Nav1.5 columns (probably TP1)
[4] = second of two Nav1.5 columns (probably TP2)

Substance: 10 (GSQVQTNVKCQGGSCASVCRREIGVAAGKCINGKCVCYRN) [compound 10]
- Activity of TRPA1 with peptide, expressed as a percentage of the reference compound (TRPA1; peptide at 0.2 μM): 108%
- Activity of TRPA1 with peptide (percentage of the reference compound) (TRPA1; peptide at 20 μM): 107%
- Activity of Kir2.1 with peptide, expressed as a percentage of the reference compound (Kir2.1; peptide at 0.2 μM): 100%
- Activity of Kir2.1 with peptide (percentage of the reference compound) (Kir2.1; peptide at 20 μM): 92%
- Activity of NR2A with peptide, expressed as a percentage of the reference compound (NR2A; peptide at 0.2 μM): 84%
- Activity of NR2A with peptide (percentage of the reference compound) (NR2A; peptide at 20 μM): 65%
- Activity of 5HT3a with peptide (percentage of the reference compound) (5HT3a): 104%
- Activity of 5HT3a with peptide, expressed as a percentage of the reference compound (5HT3a): 90%
- Activity of a4b2 with peptide, expressed as a percentage of the reference compound (α4β2; peptide at 0.2 μM): 96%
- Activity of a4b2 with peptide (percentage of the reference compound) (α4β2; peptide at 20 μM): 94%
- Activity of GABA with peptide, expressed as a percentage of the reference compound (GABA; peptide at 0.2 μM): 129%
- Activity of GABA with peptide (percentage of the reference compound) (GABA; peptide at 20 μM): 111%
- Activity of Nav1.7 with peptide, expressed as a percentage of the reference compound (Nav1.7; [1]): 105%
- Activity of Nav1.7 with peptide, expressed as a percentage of the reference compound (Nav1.7; [2]): 98%
- Activity of Nav1.7 with peptide (percentage of the reference compound) (Nav1.7; [1]): 106%
- Activity of Nav1.7 with peptide (percentage of the reference compound) (Nav1.7; [2]): 90%
- Activity of TRPV1 with peptide, expressed as a percentage of the reference compound (TRPV1; peptide at 0.2 μM): 111%
- Activity of TRPV1 with peptide (percentage of the reference compound) (TRPV1; peptide at 20 μM): 98%
- Activity of Kv1.1 with peptide, expressed as a percentage of the reference compound (Kv1.1; peptide at 0.2 μM): 117%
- Activity of Kv1.1 with peptide (percentage of the reference compound) (Kv1.1; peptide at 20 μM): 84%
- Activity of Kv1.2 with peptide, expressed as a percentage of the reference compound (Kv1.2; peptide at 0.2 μM): 135%
- Activity of Kv1.2 with peptide (percentage of the reference compound) (Kv1.2; peptide at 20 μM): 77%
- Activity of Kv1.3 with peptide, expressed as a percentage of the reference compound (Kv1.3; peptide at 0.2 μM): 101%
- Activity of Kv1.3 with peptide (percentage of the reference compound) (Kv1.3; peptide at 20 μM): 93%
- Activity of Nav1.5 with peptide, expressed as a percentage of the reference compound (Nav1.5; [3]): 93%
- Activity of Nav1.5 with peptide, expressed as a percentage of the reference compound (Nav1.5; [4]): 90%
- Activity of Nav1.5 with peptide (percentage of the reference compound) (Nav1.5; [3]): 114%
- Activity of Nav1.5 with peptide (percentage of the reference compound) (Nav1.5; [4]): 116%
- Activity of hERG with peptide, expressed as a percentage of the reference compound (hERG; peptide at 0.2 μM): 97%
- Activity of hERG with peptide (percentage of the reference compound) (hERG; peptide at 20 μM): 80%
- Activity of a3b4 with peptide, expressed as a percentage of the reference compound (α3β4; peptide at 0.2 μM): 97%
- Activity of a3b4 with peptide (percentage of the reference compound) (α3β4; peptide at 20 μM): 104%
- Activity of NR2B with peptide, expressed as a percentage of the reference compound (NR2B; peptide at 0.2 μM): 82%
- Activity of NR2B with peptide (percentage of the reference compound) (NR2B; peptide at 20 μM): 98%
- Activity of Kv2.1 with peptide, expressed as a percentage of the reference compound (Kv2.1; peptide at 0.2 μM): 88%
- Activity of Kv2.1 with peptide (percentage of the reference compound) (Kv2.1; peptide at 20 μM): 109%
- Activity of Cav2.1 with peptide, expressed as a percentage of the reference compound (Cav2.1; peptide at 0.2 μM): 104%
- Activity of Cav2.1 with peptide (percentage of the reference compound) (Cav2.1; peptide at 20 μM): 96%
- Activity of Cav2.2 with peptide, expressed as a percentage of the reference compound (Cav2.2; peptide at 0.2 μM): 98%
- Activity of Cav2.2 with peptide (percentage of the reference compound) (Cav2.2; peptide at 20 μM): 94%
